Test results: the nanobody polyreactivity screen of Harvey et al. (2022)

Test: yeast display, Sf9 membrane polyspecificity reagent, FACS + sequencing; frameworks hold sequencing errors
Procedure, shortened: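 Polyreactivity labels are assigned by the sorting gate from which each nanobody was recovered. The gates were low and high (top ~1%), set on anti-HA fluorescence for expression and streptavidin fluorescence for reagent binding. Before sorting, galactose-induced (36–48 hours) yeast display cells were stained for 1 hour at 4 °C with 10% biotinylated, detergent-solubilized Sf9 membrane reagent.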

Row | Sequence | polyreactivity (PSR sort gate)
1 | QAQLQESGGSLVQAGGGLRLSCAAIGYISVGSVMGWYRQAPSKERELVASIDQGANTNYADSVKGRFTISRDNAKNNVYLQMNSLKPEDTAVYYCATETTYILNYWGQGTQVTVSS | low polyreactivity
2 | QAQLVDSGGGLVQEGGSLRLSCAASGLIFDANVMGSYRQAPGKERELVAAISWSGGRTYYADSVKGRFTISRDNAKNTVFFQMNSMNPEVTAVYYCAADTWPDMHDYWGQGTQVTVSS | low polyreactivity
3 | QAQRVESGGGLGQAGGSLRLSCAASGRTFVRYTMGWYRQAPGKERELVAAISRSGGSTYYADSVKRRYTISRANAKNTVYLQLNSLKPEDTAVYYCAARRNAYHRDYYWGQGTQVTVSS | high polyreactivity
4 | QDHLVESGGGLVQAGGSLRLICAANGRTFRRYAMGWYRQAPGKERELVATITSGGSTNYADSVKGRFTISRDNAKNTVYLQMNSLKPQDTAVYYCAARHGESHYDYWGQGTQVTVSS | low polyreactivity
5 | QDHLVESGGGLVQAGGSLRLSCAASGRIFGGYVMGRYRQAPGTERELVAAINGGGGSTYYADSVKGRFTISRDNAKNTVYLQMNSLKPEDTAVYYCMLVKRSQRKSTIDFDYWGQGTQVTVSS | high polyreactivity
6 | QDHLVESGGGLVQAGGSLSLSCAASGIIFYGNAMGLSRQAHGKDRELVAAISWSGSSTYYADSVKGRFTISRDNAKNTVYLQMNSLKPEDNAVYYCNKATSSVRYLKYYYWGQGTQVTVSS | high polyreactivity
7 | QDHLVETGGGLVQAGGSLRLSCAASGRTLYINAMGWYRQAPGKERELVAAIRRGGSTYADSVKGRFTISRDNAKNTVYLQMNRLKPEDTAVYYCAADVPSGKYKGDYWGQGTQVTVSS | high polyreactivity
8 | QDKLVDSGGGLVQAGGSLRLSCAASGFIFGKYTMVWYRQAPGKERELVAAINRRGGSTYYADSVKGRFTISRDNAKNTVYLQMNSLKPEDTAVYYCAKDGYSLDRYYWGQGTQVTVSS | high polyreactivity
9 | QDKLVESGGGLVKAGGSLRLSCAASGSIFATYAMVWYRQAPGKERELVAAISKSTDSTYYADSVKGRFTISRDNAKNNVYLQMNSQKPEDTAVYYCAAVQRYKGLQDDSWGQGTQVTVSS | high polyreactivity
10 | QDPLVESGGGVVQAGGSLRLSCAASGSTFSDYAMGWYRQAPGKERELVAAISVSDGSTYYADSVKGRFTISRDIAKNSVYLQMNSLKPEETAVYYCAAEYPYFVYSYFRFDYWGQGTQVTVSS | low polyreactivity
11 | QDQHVDSGGGLVQAGGSLRLSCAASGFIFPQNAMGWYRQAPGKERELVAAISKRGGSTYYADSVKGRFTISRDNAKNTVYLQMNSLNPEDTAVYYCAVRYYFYRPGGYDYWGQGTQLTVSS | high polyreactivity
12 | QDQHVESGGCLVQAGGSLRLSCAASGFTFYANAMGWYRQAPGKERELVAAISRGVSTTYADSVKGRFTISRDNSKNTVYLQMNSLTPEDTAVYYCAADGKVIAQGYDYWGQGTQVTVST | low polyreactivity
13 | QDQHVESGGGFVQAGGSLRLICAASGYTFYGNPMGWYRQAPGKEREFVASINYNDDSTYYADSVKGRFTISLDNAKNTDYLQMNSLKPEDTAVYYCAAEYRTRGYHWIYYWGQGTQVTVSS | low polyreactivity
14 | QDQHVESGGGLVQAGCSLRLSCAASGFIFTYYAMGWYRQAPGKERELVAAISRSGGNTYYADSVKGRFTISRDNAKNTVYFQMYSLKREDTAVYFCAAETRRGGYWGYEYYYWGQGTQVTVSS | high polyreactivity
15 | QDQHVESGGGLVQAGCSLRLSCAASGSIFKDNAMGWYRPAPCKEWELVADITIGDSTTYEDSVKGRFTISRDNAKNTVYLHMNSLKPEDTAVYYCAADNYIIKYDYWDYDYCGQGTQVTVSS | low polyreactivity
16 | QDQHVESGGGLVQAGGILRLICAASGPIFGYNAMGWYRQEPGQERELVAAINSDGSKNYADSVKGRFTISRDNAKITVYLQMISLKPEDTAVYYCNQLLYPVGDYEFWGQGTQVTVSS | low polyreactivity
17 | QDQHVESGGGLVQAGGRLRLSCAASGRIFSFYVMGWYIQAPGKERELVASISLSGGSTYYADSVKGRFTFSRDNAKNTVYLQMNSLKPEDTEVYYCNAVLYARQRERWARYDYWGQGTQVTVSS | high polyreactivity
18 | QDQHVESGGGLVQAGGSLRLICAASGFIFVTNTMGWYRQAPGTEWELVAAIRWSGGTTYYADSVKGRFTISRDNAMQTVYLQMNSLKPEDTAFYYCAARYGSRSSYLAYYYWGQGTQVTVSS | high polyreactivity
19 | QDQHVESGGGLVQAGGSLRLSCAASGIILSAYAMGWYRQAPGTERELVARISRSGGRTYYADSVKGRFTISRDNAKNTVYLQMNSLKPEDTAVYYCAADYSYGFGLYFGYGYWGQGTQVTVSS | high polyreactivity
20 | QDQHVESGGGLVQAGGSLRLSCAASGLTFTLYAMGWYRKAPGKERELVAAITRSGGSTSYADSVKGRFTISRDYAKNTVYLQMNSLKPEDTAVYYCNADSPGYTAVRLVEFDYWGQGTQVTVSS | low polyreactivity
21 | QDQHVESGGGLVQAGGSLRLSCAASGLTSLGNAMGWYRQAPGKERELVAAITRTGTSTYYADSVKGRFTISRDNAKNTVYLQMNSLKPEDTAVYYCAADWWYGYSNYDYWGQGTQVTVSS | low polyreactivity
22 | QDQHVESGGGLVQAGGSLRLSCAASGRTIGYNAMGLYRQAPGKERELVAAITSSSGSTYYADSVKGRFTISRDNAKNTVYLQMNSLKPEDRAVYYCAAYFRRLLYDYWGQGTHVTVSS | high polyreactivity

Row | Sequence | polyreactivity (PSR sort gate)
23 | QDQHVESGGGLVQAGGSLRLSCAASGSTFDAYAMGWYRQAPGKERELVAAISWSDTTTYYADSVKGRFTISRDNAKNTVYLQMNSLKPEDTAVYYCADEYYFTEGSYTSDYWGQGTQVTVSS | high polyreactivity
24 | QDQHVESGGGLVQAGGSLRLSCAASGSTFDWNAMGWSRQAPGKERELVAGISWNGGSTYYADSVKGRFTISRDNAKNTVYLQMNSLKPEDTAVYYCNVVYGTTEYDYWGQGTQVTVSS | low polyreactivity
25 | QDQHVESGGGLVQAGGSLRLSCDASGITFWYYAMGWYRQAPGKERELVAAISRRGGATYYADSVKGRFTISRDNAKNTVYLQLNSLKPEDTAVYYCNALLAGRRVARGYDSWGQGTQVTVSS | high polyreactivity
26 | QDQHVESGGGLVQAGGTLRISCAASGFTFYVYAMGWYRQAPGKEMELVASISKSGGSTYYADSVKGRFTITRDNAKNTVFLQMNSLKTVDTAVYYCAVYDKRSCYRGGHRYNSCGQGTQVTVSS | high polyreactivity
27 | QDQHVESVGGLVQAGGSLRLSCAASGSIIPLYAMGWYRQAPGKERELVAAISSRGGSTYYADSVKGRFSISRDNAKNTVYLQMKSLKPEDTAVYYCAVDTPSPSRGPRFNYWGQGTQVTVSS | high polyreactivity
28 | QDQIVESGGGLVQAGGSLRLSCAASGSIFVIKAMGWYRQAPGKERELVASIRGRTGSTNYADSVKGRFTISRDNAKNTVYLQMNSLKPVDTAVYYGAADRKGPFDYWGLGTQVTVSS | high polyreactivity
29 | QDQIVESGGGLVQAGGSLRLSCAASGSIIWGNALGWYSQAPGKERELVAAISWGGGRTYYADSVKGRFTLSRDNAKNTVYLQMNSLKPEDTAVYYCNTRYPYVVSTGYDYWGQGTQVTVSS | high polyreactivity
30 | QDQLEESGGGLDQAGCSLRLSCAASGFTFNYYTMGWYRQAPVKERELVAVITGGGGSTYYADSVKGRFTISRDNAKNTVYLQMNSLKPEDTAVYYCAAYWGGWSFRYLYDYWGQGTQVTGSS | high polyreactivity
31 | QDQLEESGGGLVQAGGSLRLSCAASGFTFHINSMGWDREAPGKEREMVAAITYSGGSTYYADSVKGRFTISRDPAKNTVYLQMNCLKPEHTAVDYCATTWYFVASWFVAIYVYWGQGTQVTVSS | low polyreactivity
32 | QDQLEESGGGLVQAGGSLRLSCAASGLTFIQYALGWYRQAPGKERELVAAINSGASTRYADSEKGRFTISRDNAMNTVYLQMNSLKPEDTAVYYCNARLRRYTNRYYKYYYWGQGTLVTVSS | high polyreactivity
33 | QDQLEESGGGLVQAGGSLRLSCAASGSTFSYYTMGWYRQGPGKETELVAAISSGGSTYADSVKGRFTISRDNAKYTVYLQKNSLKPEDTAVYYCAVVGFDYGPSQALDDWGQGTQVTVSS | low polyreactivity
34 | QDQLEESGGGLVQAGGSLRLSSADSGRIFYSYAMGWYRQAPGKERELVAAINSGDRTNYADSVKGRFTISRDNAKNTVYLQMNSLKPEDTAVYYCATRWFAFPWDEYNYWGQGTQGTVSS | low polyreactivity
35 | QDQLEESVGGLVQAGGSLRLSCAASGRIFVYNAMGWYRQAPGKERELVAAISKGGGSTYYADSVKGRFTISRDNAKNTVYLQMNSLKPEDTAVYYCAAVVSGRYWGYYSWGQGTQVTVSS | high polyreactivity
36 | QDQLGESGGGLVQAGGSLRLSCAASGSTFYAYAMGWYRQAPGKERELVATISWSGGSTYADCVKGRFTISRDNAKNTVYLQMNSLKPEDTPVYYCNAAGAFYPTQVHPGYTLWSYDYWGQGTQVTVSS | low polyreactivity
37 | QDQLLESVGGLVQAGGSLRLSCAATGSTFHRSVMGSYRQAPGKEREMVAVINSTGGSTYYADSVKGRFTISLDNAKNTVYLQMNSVKPEDSAVYYFAADLYSIEYETAYRGYEYWGQGTQVTVSS | low polyreactivity
38 | QDQLVDSGGGLVQAGGSLRLLCAPSGRTFGVYAMGRYIQAPGKERELVAAISRDGGSTYYADSVKGRFTISRDNAKNTVYLQMNSLIPEDTAVYYCNTDWRYRYGYWGQGTQVTVSS | high polyreactivity
39 | QDQLVDSGGGLVQAGGSLRLSCAASGFTFSLNTMGWYRQAPGKERELVAAINSGDSTYADSVKGRFTISRDNAKNTVYLQMNSLKPEETAVYYCNADPDWWYPYNYWGQGTQVTVSS | low polyreactivity
40 | QDQLVDSGGGLVQAGGSLRLSCAASGRIFGYNSMGWYRQAPGKERELVASISSDGRTYYADSVKGRFTISRDNAKNTVYLQMNSLKPEDTAVYYCAAKEWYFTTWYTYYERDYWGQGTQVTLSS | high polyreactivity
41 | QDQLVDSGGGLVQAGGSLRLSCAASGRIFSGNGMGWYSPAPGKERELVASISSGGRTYYADSVKGRFTISRDNAKITVYLQMNSLKPEDTAVYYCNRVASVRARDYDYWGQGTQVTVSS | high polyreactivity
42 | QDQLVDSGGGLVQAGGSLRLSCAASGRIIGYNAMVWYRQGPGKERELVAAITTSGGSTYYADSVKGRFTISSDNAKNTVYLQMNSLKPVDTAVYYCARDSLQVFYPYASDDYWGQGTQVTVSS | low polyreactivity
43 | QDQLVDSGGGLVQAGGSLRLSCAASGRTFGYYAMGWYRQAPGKERELVAAISISTGRTYYADSVKGRFTISRDNAKNTVYLQMNSLKPEDTAVYYCAAYYYGGRYHSEYDYWGQGTQVTVSS | high polyreactivity
